First the molecules themselves.
B1: glmS ribozyme (parent)
chain: AUAAAAGCGCCAGAACUACAGAAAUGUAGUUGACGAGGAGGAGGUUUAUCGAAUUUUCGGCGGAUGCCUCCAAA

± gives the standard error. This sample holds only a part of the variants without activity.

What all share (settings): with glucosamine-6-phosphate
Variants of B1 are the subject of series [1]. Kind of series: self-cleavage kobs at 640 uM GlcN6P; higher = faster cleavage; RNA array. The gist of the method: (§1)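 Glucosamine-6-phosphate, from 40 μM to 10 mM in HEPES/KCl/Mg(OAc)2 buffer, was flowed over sequenced MiSeq chips carrying barcoded ribozyme variants transcribed in situ by E. coli RNA polymerase. A hybridised Cy3 probe tracked the variants at 37 °C as tiles were imaged over ~14 h. kobs, kcat and KM were obtained by fitting normalised per-tile medians to exponential decays and then applying weighted Michaelis–Menten fits across concentrations.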

In series [2] the parent is B1. Kind of series: self-cleavage kobs at 2500 uM GlcN6P; higher = faster cleavage; RNA array. Summed up:
as §1

Variants of B1 are the subject of series [3]. Kind of series: self-cleavage kobs at 10000 uM GlcN6P; higher = faster cleavage; RNA array. Summed up: as §1

For C10U A12U C50U C70U, the “self-cleavage kobs at 640 uM GlcN6P” value in the series with glucosamine-6-phosphate [1] came to 0.000161 ± 6.4e-05 s⁻¹.

On to A6U C11U U31C G40A G44A U55A, for which, in the series with glucosamine-6-phosphate [1], the “self-cleavage kobs at 640 uM GlcN6P” value was under 1e-05 s⁻¹.

Turning to C8G G13U A33U U57G, the “self-cleavage kobs at 640 uM GlcN6P” value with glucosamine-6-phosphate [1] was under 1e-05 s⁻¹. Moreover, the “self-cleavage kobs at 2500 uM GlcN6P” value with glucosamine-6-phosphate [2] was under 1e-05 s⁻¹.

For the variant A15U C16U G51C C58G C61G C67U, the “self-cleavage kobs at 640 uM GlcN6P” value with glucosamine-6-phosphate [1] was 0.000417 ± 8.1e-05 s⁻¹.

In the case of G13U C58A U69A, in the series with glucosamine-6-phosphate [1], the “self-cleavage kobs at 640 uM GlcN6P” value was found to be 6.33e-05 ± 2e-05 s⁻¹.

Take G38U C50U C58A U69A: the “self-cleavage kobs at 640 uM GlcN6P” value in the series with glucosamine-6-phosphate [1] is 0.000295 ± 9.9e-05 s⁻¹. The “self-cleavage kobs at 2500 uM GlcN6P” value with glucosamine-6-phosphate [2] amounted to 0.000466 ± 0.00018 s⁻¹.

Turning to A6U A14G G60C, the “self-cleavage kobs at 640 uM GlcN6P” value in the series with glucosamine-6-phosphate [1] was under 1e-05 s⁻¹.

For the variant A6C C10A G32A G51A A52G A53G G59C G63U C68A, in the series with glucosamine-6-phosphate [1], the “self-cleavage kobs at 640 uM GlcN6P” value is 0.000154 ± 5.6e-05 s⁻¹.

Take C8U A33C G35C U56G U65C: in the series with glucosamine-6-phosphate [1], the “self-cleavage kobs at 640 uM GlcN6P” value was under 1e-05 s⁻¹. For the same variant, the “self-cleavage kobs at 2500 uM GlcN6P” value with glucosamine-6-phosphate [2] was under 1e-05 s⁻¹.

In the case of U45C C71G, the “self-cleavage kobs at 640 uM GlcN6P” value in the series with glucosamine-6-phosphate [1] came to 8.57e-05 ± 2.5e-05 s⁻¹. For the same variant, the “self-cleavage kobs at 2500 uM GlcN6P” value in the series with glucosamine-6-phosphate [2] was found to be 5.59e-05 ± 2.2e-05 s⁻¹. In addition, in the series with glucosamine-6-phosphate [3], the “self-cleavage kobs at 10000 uM GlcN6P” value was 0.000305 ± 6.9e-05 s⁻¹.

In the case of C10A G41C C58U, in the series with glucosamine-6-phosphate [1], the “self-cleavage kobs at 640 uM GlcN6P” value is under 1e-05 s⁻¹.

For the variant G40A G41C A42C C70U, the “self-cleavage kobs at 640 uM GlcN6P” value with glucosamine-6-phosphate [1] is under 1e-05 s⁻¹.

For the variant A12G A14U A15U C71A, the “self-cleavage kobs at 640 uM GlcN6P” value with glucosamine-6-phosphate [1] turned out to be 6.44e-05 ± 1.9e-05 s⁻¹. Moreover, the “self-cleavage kobs at 2500 uM GlcN6P” value in the series with glucosamine-6-phosphate [2] was 7.44e-05 ± 1.8e-05 s⁻¹.

As for C50U U56A G66U, the “self-cleavage kobs at 640 uM GlcN6P” value in the series with glucosamine-6-phosphate [1] is under 1e-05 s⁻¹. Also, in the series with glucosamine-6-phosphate [2], the “self-cleavage kobs at 2500 uM GlcN6P” value is under 1e-05 s⁻¹.

For the variant G32C C70G, the “self-cleavage kobs at 640 uM GlcN6P” value with glucosamine-6-phosphate [1] was found to be 0.000253 ± 8.1e-05 s⁻¹. Also, the “self-cleavage kobs at 10000 uM GlcN6P” value with glucosamine-6-phosphate [3] was found to be 2.34e-05 ± 9.6e-06 s⁻¹.

Regarding A15U U49G A64C, the “self-cleavage kobs at 640 uM GlcN6P” value with glucosamine-6-phosphate [1] is under 1e-05 s⁻¹.

Turning to G9U G29U C34A G41U U57G G59A, the “self-cleavage kobs at 640 uM GlcN6P” value with glucosamine-6-phosphate [1] is under 1e-05 s⁻¹. The “self-cleavage kobs at 2500 uM GlcN6P” value in the series with glucosamine-6-phosphate [2] is under 1e-05 s⁻¹.

Take C10A G51A: the “self-cleavage kobs at 640 uM GlcN6P” value with glucosamine-6-phosphate [1] is under 1e-05 s⁻¹. The “self-cleavage kobs at 10000 uM GlcN6P” value with glucosamine-6-phosphate [3] was under 1e-05 s⁻¹.

For the variant C11A A36U C70G, in the series with glucosamine-6-phosphate [1], the “self-cleavage kobs at 640 uM GlcN6P” value is 0.000284 ± 7e-05 s⁻¹. Also, in the series with glucosamine-6-phosphate [2], the “self-cleavage kobs at 2500 uM GlcN6P” value worked out at 0.000767 ± 0.00032 s⁻¹.

For U30G A52C C71G, the “self-cleavage kobs at 640 uM GlcN6P” value with glucosamine-6-phosphate [1] was under 1e-05 s⁻¹.

A14U U17C A18U C19A G59U G66A: in the series with glucosamine-6-phosphate [1], the “self-cleavage kobs at 640 uM GlcN6P” value is under 1e-05 s⁻¹. The “self-cleavage kobs at 2500 uM GlcN6P” value with glucosamine-6-phosphate [2] is under 1e-05 s⁻¹.

Take A15G G44U A52C U69C: the “self-cleavage kobs at 640 uM GlcN6P” value in the series with glucosamine-6-phosphate [1] is under 1e-05 s⁻¹.

As to G9U C10A, the “self-cleavage kobs at 640 uM GlcN6P” value with glucosamine-6-phosphate [1] was under 1e-05 s⁻¹. For the same variant, the “self-cleavage kobs at 2500 uM GlcN6P” value with glucosamine-6-phosphate [2] was under 1e-05 s⁻¹.

Regarding A14C G40C G41C G44C, in the series with glucosamine-6-phosphate [1], the “self-cleavage kobs at 640 uM GlcN6P” value was under 1e-05 s⁻¹. The “self-cleavage kobs at 2500 uM GlcN6P” value with glucosamine-6-phosphate [2] was under 1e-05 s⁻¹.

U30A A53U C67G: in the series with glucosamine-6-phosphate [1], the “self-cleavage kobs at 640 uM GlcN6P” value came out at 6.37e-05 ± 2.6e-05 s⁻¹. In addition, the “self-cleavage kobs at 2500 uM GlcN6P” value with glucosamine-6-phosphate [2] was 4.68e-05 ± 2.2e-05 s⁻¹. In addition, in the series with glucosamine-6-phosphate [3], the “self-cleavage kobs at 10000 uM GlcN6P” value turned out to be 0.000271 ± 6.3e-05 s⁻¹.

As to G29C U56A C58A G63U, in the series with glucosamine-6-phosphate [1], the “self-cleavage kobs at 640 uM GlcN6P” value was under 1e-05 s⁻¹. Moreover, the “self-cleavage kobs at 2500 uM GlcN6P” value in the series with glucosamine-6-phosphate [2] is under 1e-05 s⁻¹.

With G43C U46G U56G, the “self-cleavage kobs at 640 uM GlcN6P” value with glucosamine-6-phosphate [1] was under 1e-05 s⁻¹.

With A12C A14C G32A G44C C70G, the “self-cleavage kobs at 640 uM GlcN6P” value with glucosamine-6-phosphate [1] was under 1e-05 s⁻¹. The “self-cleavage kobs at 2500 uM GlcN6P” value in the series with glucosamine-6-phosphate [2] is under 1e-05 s⁻¹.

As to A14C G41C G44C C50G, the “self-cleavage kobs at 640 uM GlcN6P” value with glucosamine-6-phosphate [1] is under 1e-05 s⁻¹.

Turning to U31C G44A C50A, in the series with glucosamine-6-phosphate [1], the “self-cleavage kobs at 640 uM GlcN6P” value was under 1e-05 s⁻¹.

Consider A6G C50U C61U, for which, in the series with glucosamine-6-phosphate [1], the “self-cleavage kobs at 640 uM GlcN6P” value is under 1e-05 s⁻¹. Besides, the “self-cleavage kobs at 2500 uM GlcN6P” value with glucosamine-6-phosphate [2] is under 1e-05 s⁻¹.

Turning to C11A C50U G59C, the “self-cleavage kobs at 640 uM GlcN6P” value with glucosamine-6-phosphate [1] is under 1e-05 s⁻¹. For the same variant, the “self-cleavage kobs at 2500 uM GlcN6P” value with glucosamine-6-phosphate [2] was under 1e-05 s⁻¹.

Regarding U30A A64U, the “self-cleavage kobs at 640 uM GlcN6P” value with glucosamine-6-phosphate [1] was under 1e-05 s⁻¹.

Source of the values: the supplement of paper PMC7125110.
